Laboratory results as given in patent US20230151079.

System: Recombinant protein (SEQ ID NO: 1), modified from sculptin of the tick Amblyomma cajennense

Substance | hydrolysis of recombinant protein by serine protease (SDS-PAGE, 6 h)
factor Xa | factor Xa also converted the recombinant protein in fragments
plasmin | strip of 20-kDa completely disappeared in recombinant protein incubated by plasm in and trypsin
thrombin | strip intensity of 20-kDa (corresponding to non-digested recombinant protein) decreased and strips of lower molecular weight appeared in recombinant protein incubated by thrombin
trypsin | strip of 20-kDa completely disappeared in recombinant protein incubated by plasm in and trypsin
